This data set can be described thus: amyloid nucleation score (Sup35N fusion, yeast selection) (log enrichment); library NNK3; higher = more nucleation; inactive = no reads after selection. The essentials:
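Libraries of peptides of 20 random codons fused to Sup35N were expressed in psi-negative yeast and induced 24 hours with 100 μM copper sulfate. Selection was 7 days at 30°C on medium lacking adenine and uracil, and plasmid inserts were Illumina-sequenced before and after selection. Nucleation score is the DiMSum log enrichment of output over input reads, centred on the mode score of non-aggregating sequences, and sequences with under 100 input reads were left out.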

± gives the uncertainty stated by the source.

As to HSRRYILNVP, the amyloid nucleation score is 0.935 ± 0.085.
Regarding LVASSRW, the amyloid nucleation score result was “inactive”.
In the case of NDMFRVSCSQNSESQYNLNG it was “inactive”.
Then RVVYLHNSVRLSLDVNPIAV, with “inactive”.
Regarding WQNEMYGRCVLCKLRYNEPD, the amyloid nucleation score entry was “inactive”.
Take KANDFTVFLRRVCLLNRVNA: the amyloid nucleation score entry is “inactive”.
Then SPVRVDWFSKRFSGYVMRTM, with “inactive”.
Then SEISWQVLCKNEDEYCHFWE, with “inactive”; and SLAIMCCKIWPLLIMYILIT, with “inactive”.
In the case of IDYSNVYSISRPSMFCWRNN it was “inactive”; in that of DRIGVQ, “inactive”; in that of DMIYMLVAFARFIYLDTCIR, “inactive”.
QMIRVVVFNYDQFFR displayed an amyloid nucleation score of 1.47 ± 0.084.
In the case of SVRSGLARVSRTGMG it was “inactive”; in that of LYSSNQLFDGGMSFWNDNII, “inactive”.
Then RSSWK, with “inactive”; and VEPYRVLYRNGR, with “inactive”; and VIDVFSRDLSMLIFSFGHMK, with 1.12 ± 0.089.
Then MFITRVLR, with “inactive”; and WTDVRGMVSSINGRSTSRVP, with “inactive”; and KDLDGVLFGNANWKIICEL, with “inactive”.
In the case of ALMCIHRLCPNIVPDQ, the amyloid nucleation score entry is “inactive”.
Then LWDRHNCWGDEASFPSRPTY, with “inactive”.
Then VCHKCCDRIQSLVGVRGHQE, with “inactive”; and SFPINGYMFSGYLERWCFTS, with “inactive”; and DLLQVLPCVLDSYGARAVRC, with “inactive”.
For KLTPRFICVMCTCLIRL, the amyloid nucleation score result was “inactive”.
In the case of LIQVIGLSIALRTMSCLRGS it was “inactive”; in that of GWIAYRGSDR, “inactive”; in that of PHNGHKNSWCTVPGSSCRSV, 1.14 ± 0.18.
In the case of LLTIKN it was “inactive”; in that of NRGLWRM, “inactive”; in that of RTINWASCQSWLKVTSPKGL, “inactive”.
In the case of DYDYTRFPVITV it was “inactive”; in that of NSLNKGKFHWVNIGTSSLQG, “inactive”; in that of DTEVHQNRFRMFGACDRERK, “inactive”.
ETDYVGRFALMKYDGLVYI: the amyloid nucleation score entry is “inactive”.
In the case of NRWEFVHLLSYWNKSCDLCC it was “inactive”; in that of RFGFS, “inactive”.
In the case of VIKTLVSWTYISCRLN it was “inactive”; in that of IVGYERATFVLRSYRFEKVS, “inactive”; in that of NINRSPWLIGWGLPKLKRDH, “inactive”.
In the case of IQLIILMASTGSLYLPSDWT it was 0.349 ± 0.18; in that of KVSMPISHTQSLPVVTARCH, “inactive”.
As for GGCLGICTAANLRSGNRITR, the amyloid nucleation score entry was “inactive”.
For the substance WVFVDLLSNVVFNGKIVERC, the amyloid nucleation score result is “inactive”.
Then SMSNQSSTFDSLLFRQWLVV, with “inactive”; and FEDLKTDSILYQFSRAYGDW, with “inactive”.
In the case of TILSPMASSQNKCDKNPMLS it was 1.19 ± 0.073; in that of NFMYTWKRSMFYSNCKH, “inactive”; in that of PIILKIPV, “inactive”.
In the case of NHCYLLL it was “inactive”; in that of TVTCRVQRHLDLN, “inactive”; in that of SRVWMITRLFGTMA, “inactive”.
IDPQS: the amyloid nucleation score result is “inactive”.
In the case of LMGLNYAWDAFWLIFPGLCF it was “inactive”; in that of ISFLADYRQPSVKFVGGYVM, “inactive”.
In the case of WGFVIIYELKNLMCVMRPPS it was “inactive”; in that of SPYVYRTWFRTLEYCTRDDM, “inactive”.
Then TNMYYSRVANDGIF, with “inactive”.
As to YSLNTSFIYIKIRYH, the amyloid nucleation score was determined as 1.28 ± 0.11.
In the case of LWSLHMESDWGVRIHSRSLI it was “inactive”; in that of NLYRRYHVHSKRALSIYSTP, -0.033 ± 0.23.
The substance VLKESMLGISLLMGTLRW gave an amyloid nucleation score of 0.2 ± 0.56.
Turning to PDLITLIFGSHFGKCSFISY, the amyloid nucleation score result is “inactive”.
Take LLLIFS: the amyloid nucleation score entry was “inactive”.
In the case of MRISRAVHELWILNFVTKES it was -0.52 ± 1.3; in that of NTPLWAFPEVLSDHNFN, “inactive”; in that of WYFGCSALYQL, 1.49 ± 0.099.
Then SENGECKATVLCMLSSPVVC, with “inactive”.
Regarding GWMQGVLSELTTTLVMESAR, the amyloid nucleation score entry is “inactive”.
In the case of LMGGQMRDIVFHMQGF it was 1.45 ± 0.1; in that of ILIEVFLWSCYKYVNC, “inactive”.
In the case of SLCWSLNGFNLLISFDFRRN it was 0.785 ± 0.14.
In the case of TKIYVLLFTSLVLVDTVLFL it was -0.002 ± 0.4.
Turning to DFSSCCDHPFIVI, the amyloid nucleation score worked out at 0.346 ± 0.75.
Then DKTCKVDWMSFTSHDF, with “inactive”; and TGLIWLCESNRMLTVGSSLR, with “inactive”.
In the case of TNVAHSKSSHHAYFIDWIGQ it was “inactive”; in that of QYVWCGPFERYLASSVYGFS, “inactive”; in that of VHLSRWYVN, “inactive”.
In the case of NMIFA it was “inactive”.
The substance TLKCQHCIHVLGCVDMLTNF showed an amyloid nucleation score of 1.46 ± 0.11.
In the case of SQCRVYN it was “inactive”; in that of RYFPTV, “inactive”; in that of LFIWCTFFVIMFCSTTRVSI, 1.17 ± 0.16.
In the case of PYLRMG it was “inactive”; in that of ISLVGFHVKLVFL, 2.11 ± 0.09.
For the substance CRSIWITPGNYAFALSFLMR, the amyloid nucleation score entry was “inactive”.
In the case of SYVFTR it was “inactive”.
In the case of SISQTIVCTRPRVSAMIWFC it was “inactive”; in that of PGNEEVGTNCMLTSNLTYVH, “inactive”; in that of RFYLIKPAI, “inactive”.
In the case of FWMIVYMNNSLI it was “inactive”; in that of DIELLGKARGYSLEQG, “inactive”; in that of YGCQSCHGFLCSQFGRPAHS, 0.976 ± 0.21.
As to FNPERPKAVDFPILNR, the amyloid nucleation score entry is “inactive”.
In the case of ASLMERSIMYFVLVNNPRSE it was 0.355 ± 0.29.

Values taken from the supplement of paper PMC12042874.
